# According to paper PMC3324464, “The GPI Anchor Signal Sequence Dictates the Folding and Functionality of the Als5 Adhesin from Candida albicans” (PLoS ONE, 2012):
# Entries after “also recorded” stand apart in the source; their conditions may differ.
# B1: GST-Als5: GST fusion of full length Als5 minus the GPI anchor attachment signal sequence, expressed in E. coli (protein)
# chain: ITGIFNSIDSLTWSNAGNYAFKGPGYPTWNAVLGWSLDGTSANPGDTFILNMPCVFKFTASQKSVDLTADGVKYATCQFYSGEEFTTFSSLKCTVNNNLRSSIKALGTVTLPIAFNVGGTGSSVDLEDSKCFTAGTNTVTFNDGSKKLSIAVNFEKSTVDQSGYLTTSRFMPSLNKIATLYVAPQCENGYTSGTMGFSTSYGDVAIDCSNVHIGISKGVNDWNHPVTSESFSYTKSCSSFGISITYQNVPAGYRPFIDAYISPSDNNQYQLSYKNDYTCVDDYWQHAPFTLKWTGYKNSDAGSNGIVIVATTRTVTDSTTAVTTLPFNPSVDKTKTIEILQPIPTTTITTSYVGVTTSYSTKTAPIGETATVIVDVPYHTTTTVTSEWTGTITTTTTRTNPTDSIDTVVVQVPLPNPTTTTTQFWSESFTSTTTITNSLKGTDSVIVREPHNPTVTTTEFWSESYATTETITNGPEGTDSVIVREPHNPTVTTTEFWSESYATTETVTNKPEGTDSVIIKEPHNPTVTTTEFWSESYATTETITTGPLGTDSIVIHDPLEESSSTTAIESSDSNISSSAQESSSSVEQSSSIVGLSSSSDIPLSSDMPSSSSTGLTSSESSTVSSYDSDSSSSSELSTFSSSESYSSSISDTTNFWDSSSSDLESTSITWSSSIDAQSSQSVQSVSNSISTSQETTSSSGEESNTSVTDILVSSDASSILNSDISSYYPSSTISLSDDFPHTIAGEPDSRSSSSIASTVEISSDLVSLTSDPTSSFDSSSSLNSDSSSSPFSDESDISASSSFSTLVAPSFSLSSSSSLSLTYPHYVNSTTYHASESESSSVASPSMASESANDDTHTLSESTDTTSSIGTDSSTVTFCRRDNGDGCIVTGMPSSSIDSEQTSDVTTTSSFVASSTPTSAEQSITDNPNIDSSQTSASSSTKSSVSVSDTVVNSISLSETSTLSSDDSTSSDTSISSTTNSDTGNINAGSSHTSTASIKESSIQKTGVMLSSSYLSTKLSSTSDITTELITTELITTELTTIEDNEPNTFTSTPSSHSEIFSSDNSVLSKQVDRESTIKTSPTTDVTTVSSLSVHSTEASTATLGENSFSNVASTPSNIATSLRSTSSSSNHATESSGTVKSEASAEAIPSPPTSTDNRLSYSTEEAKGITYANSGSTNNLITESQVAAPTDSTSVLIENPVVTSTFDDNSSAAVDQPSKTKSIEESIMNPDSTNETNNGFIATLSQAQVPNSLIHSESISTTMAKTTDASINGDSAASNSQPTTLIQQVATSSYNQPLITTYAGSSS
# modifications: left off: GST, N-terminal, kept
# Tests used:
# [1] = system: collagen type IV treated with N-Glycosidase F; test: Adhesion to N-glycosidase F treated collagen type IV; format: binding, human; conditions: 0.5 U N-glycosidase F, 3 hours; data not shown
# Method: Figure 3 Adhesion of Als5 to collagen type IV involves recognition of carbohydrate residues on collagen type IV but is not solely determined by it. (A) Adhesion of GST-Als5, GST-Als5-SS to collagen type IV. Different amounts of collagen type IV, as shown in the figure, were immobilized in 96-well flat bottomed ELISA plates and incubated with the proteins (0.09 mg/ml) of interest at 37 °C for 1 hour. The adhesion assay was carried out as described in Experimental Procedures. Adhesion of the proteins to collagen type IV was correlated to the absorbance at 650 nm observed by the oxidation of TMB, the substrate of HRP. […] Buffer controls (OD 650nm of 0.126 ± 0.003), corresponding to no immobilized collagen, have been subtracted in all cases. […] The data presented is mean of 3 independent experiments done in duplicates. […] (B) Treatment of collagen type IV with N-Glycosidase F results in decrease in adherence of GST-Als5. […] Adherence to collagen type IV was detected as already described. […]
# Supplementary file pone.0035305.s005.tif: Figure S5 Treatment of collagen type IV with N-Glycosidase F results in decrease in adherence of GST-Als5. […] GST-Als5 was incubated before the adherence was detected by using primary anti-GST antibody and anti-rabbit HRP-conjugated secondary antibody and is represented in this figure by the Absorbance at 650nm observed upon oxidation of the specific substrate of HRP. […]
# [2] = Aggregation by transmission electron microscopy; format: physicochemical; conditions: 37 °C
# Method: Transmission Electron Microscopy (TEM)
# TEM studies were carried out on a JEOL 2100F. The proteins (0.09 mg/ml) were incubated at 37 °C for 2 weeks prior to the measurements. The proteins were spotted on a carbon-coated copper grid and positively stained with 2% uranyl acetate. The sample was then dried and examined by TEM using a 210 kV accelerating voltage.
# Figure 5 Transmission electron microscope images showing aggregation by GST-Als5. […] The scale bar in each panel represents 100 nm. Left panel: 10,000X magnification. Right panel: 25,000X magnification.
# (A) Prediction of β-aggregation potential for the GPI anchor attachment signal sequence (SS). The prediction of β-aggregation potential for the SS was done using TANGO (residues 1328–1347). Also shown is the propensity for α-helix, β-turn and β-sheet formation in the unfolded polypeptide chain as predicted by TANGO. […] (B). Transmission electron microscope images showing aggregation by SS and SS in the presence of GST-Als5. The samples, SS (40.0 µM), GST-Als5 (0.4 µM) and GST-Als5 (0.4 µM) + SS (40.0 µM) were incubated as 37 °C for two days before TEM images were recorded.
# [3] = system: human collagen type IV; test: Adhesion assay to immobilised collagen type IV; format: binding; conditions: 0.09 mg/ml protein, 37°C 1 hour, anti-GST/HRP, TMB OD650nm; mean of 3 independent experiments in duplicates
# Method: Freshly purified GST-Als5 and GST-Als5-SS were checked for their ability to bind to human collagen type IV, following a slightly modified method to that reported. Briefly, a 96-well flat bottom plate was coated with different amounts of collagen type IV and incubated overnight at 4°C. The plate was then washed thrice with PBS and twice with elution buffer. […] The wells were blocked for 1 hour with 5% skimmed milk in PBS and then washed 5 times with wash buffer (1% skimmed milk, 0.025% Tween-20 in PBS). Thereafter, 200 µl/well of primary anti-GST antibody (diluted 1∶1,000) was added. After incubation at 37°C for 1 hour, the wells were washed five times with wash buffer and incubated at 37°C with HRP-conjugated secondary antibody (200 µl/well; diluted 1∶20,000) for 1 hour. The wells were rinsed five times with wash buffer, 100 µl of freshly prepared tetramethylbenzidine solution was added to each well and incubated at 37°C for 1 hour. OD650nm was monitored on a plate reader (Spectramax M2). […]
# Figure 3 Adhesion of Als5 to collagen type IV involves recognition of carbohydrate residues on collagen type IV but is not solely determined by it. […] Adhesion of the proteins to collagen type IV was correlated to the absorbance at 650 nm observed by the oxidation of TMB, the substrate of HRP. […] Adherence to collagen type IV was detected as already described. […]
molecule,measurement,setting,value
B1,effect of longer deglycosylation on adhesion (in words),[1],did not further reduce the adhesion
same,aggregation (in words),"[2]; 2 weeks, 0.4 µM / 0.09 mg/ml (method)",significantly higher amount of aggregation as compared to either GST-Als5-SS or GST alone; also recorded: showed significant amount of aggregation
same,aggregation (in words),"[2]; 2 days, SS 40.0 µM, GST-Als5 0.4 µM, alone or together",aggregates both in the absence as well as in the presence of SS
same,adhesion to collagen type IV (in words),[3],greater adherence to collagen type IV as compared to GST-Als5-SS
